For one substance, Kd results are on record in publication PMC8562343.

This test deals with Transportin-1 (TNPO1) (UniProt Q92973). The test is described as follows: ITC; MicroCal VP-ITC, 28 injections of 8 µl at 25°C; 50 mM Tris-HCl pH 7.5, 150 mM NaCl, 5 mM TCEP, 0.04% NaN3; standard one-site model; which protein was in the syringe is not given. For orientation: ITC needs no label: the signal is the heat of the interaction.
UniProt Q92973, sequence (Q92973 whole entry): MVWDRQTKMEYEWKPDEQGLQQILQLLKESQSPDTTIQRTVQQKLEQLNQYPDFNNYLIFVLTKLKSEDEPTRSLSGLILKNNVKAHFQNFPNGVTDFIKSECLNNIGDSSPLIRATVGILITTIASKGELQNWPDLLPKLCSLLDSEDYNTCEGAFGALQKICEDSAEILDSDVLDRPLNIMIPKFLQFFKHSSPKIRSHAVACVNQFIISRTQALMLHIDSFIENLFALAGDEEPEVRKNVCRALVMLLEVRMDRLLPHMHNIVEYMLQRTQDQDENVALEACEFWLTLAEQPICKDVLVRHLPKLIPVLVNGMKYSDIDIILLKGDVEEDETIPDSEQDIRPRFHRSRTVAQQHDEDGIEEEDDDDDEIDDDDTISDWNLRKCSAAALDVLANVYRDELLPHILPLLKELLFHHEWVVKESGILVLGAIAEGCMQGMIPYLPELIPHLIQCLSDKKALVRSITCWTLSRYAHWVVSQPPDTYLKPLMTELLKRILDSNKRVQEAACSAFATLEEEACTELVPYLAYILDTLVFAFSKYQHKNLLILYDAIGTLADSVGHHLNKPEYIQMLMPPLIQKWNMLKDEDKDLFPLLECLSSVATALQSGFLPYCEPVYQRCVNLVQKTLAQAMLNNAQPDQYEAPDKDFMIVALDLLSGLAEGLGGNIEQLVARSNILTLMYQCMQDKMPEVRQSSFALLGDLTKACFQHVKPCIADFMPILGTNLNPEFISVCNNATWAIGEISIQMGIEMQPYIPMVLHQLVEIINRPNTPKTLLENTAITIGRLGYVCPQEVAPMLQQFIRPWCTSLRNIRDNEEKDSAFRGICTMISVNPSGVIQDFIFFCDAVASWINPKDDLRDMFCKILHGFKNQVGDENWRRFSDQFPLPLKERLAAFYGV

The Kd is the concentration at which binding is half-saturated. The low end stands for higher affinity, the high end for lower affinity. “RG/RGG region of cold-inducible RNA-binding protein (CIRBP-RGG, amino acids 68-137) (from UniProt Q14011 68-137) (domain or fragment)”: the Kd was found to be 124 nM.
